Reference: IntAct's records for PubMed 27107116

B1: Protein REG2 (Saccharomyces cerevisiae), P38232 (parent)
chain: MTLSNCDSLDNLFQDPPEEEESSKFVEAVRTLMNRNDMGYPPAAANGTYCLKKIKSLNAKQWKINKKRMCMLPAVKKKNFDFHEQRSLILNLNLWKFIKFINCSSKNNYNKNNKHVRSSNNTVKNENVLPLQKHKKVDNDQRLENLFWRSWFKARKRRDIMGKPRERHIKFNDNVEQCIITDEHFIQRLPSTRLNSTDEQRPCSKSELDPCIGNAASKRSFYDYNSVYVASDAIITTAAATAIISSNSGDYQRGHDVRDVPRNVLLQAGETDFSSVLRVDSDLKLSNISHHSPVKPSSTSSHSTFIFESETDTDTDTDAETENDIDAYIDTSIPNLLL
partner: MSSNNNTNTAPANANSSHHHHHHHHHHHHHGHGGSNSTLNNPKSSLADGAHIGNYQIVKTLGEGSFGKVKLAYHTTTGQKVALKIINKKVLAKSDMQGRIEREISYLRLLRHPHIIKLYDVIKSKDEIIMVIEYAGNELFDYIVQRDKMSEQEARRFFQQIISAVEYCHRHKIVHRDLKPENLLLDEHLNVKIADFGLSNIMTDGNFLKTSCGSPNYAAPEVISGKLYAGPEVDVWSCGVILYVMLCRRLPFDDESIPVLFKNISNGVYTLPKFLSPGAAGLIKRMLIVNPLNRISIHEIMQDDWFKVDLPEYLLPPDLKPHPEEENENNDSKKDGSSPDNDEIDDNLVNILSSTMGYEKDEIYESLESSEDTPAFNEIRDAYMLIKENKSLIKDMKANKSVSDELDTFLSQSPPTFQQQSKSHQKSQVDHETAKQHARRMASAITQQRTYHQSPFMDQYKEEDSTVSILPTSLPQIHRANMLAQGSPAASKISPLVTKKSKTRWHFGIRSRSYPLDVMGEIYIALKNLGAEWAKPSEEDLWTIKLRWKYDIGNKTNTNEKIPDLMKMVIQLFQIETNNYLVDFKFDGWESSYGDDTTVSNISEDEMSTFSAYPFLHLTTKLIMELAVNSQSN
B2: Carbon catabolite-derepressing protein kinase (Saccharomyces cerevisiae), P06782 (parent)
chain: B1 partner
partner: B1 chain
B3: Protein REG2 (Saccharomyces cerevisiae), P38232 (parent)
chain: B1 chain

Variants of: B1
Settings: with snf1_yeast SNF1, P06782

effect of a mutation on the interaction	Variant
with no effect	MTLSNCDSLDNLFQDPPEEEESSKFVEAVRTLMNRNDMGYPPAAANGTYCLKKIKSLNAKQWKINKKRMCMLPAVKKKNFDFHEQRSLILNLNLWKFIKFINCSSKNNYNKNNKHVRSSNNTVKNENVLPLQKHKKVDNDQRLENLFWRSWFKARKRRDIMGKPRERHMKANDNVEQCIITDEHFIQRLPSTRLNSTDEQRPCSKSELDPCIGNAASKRSFYDYNSVYVASDAIITTAAATAIISSNSGDYQRGHDVRDVPRNVLLQAGETDFSSVLRVDSDLKLSNISHHSPVKPSSTSSHSTFIFESETDTDTDTDAETENDIDAYIDTSIPNLLL [I169M;F171A]

Variants of: B2
Settings: with reg2_yeast REG2, P38232

effect of a mutation on the interaction	Variant
disrupting interaction strength	T210A
decreasing interaction strength	K84R

Variants of: B3
Settings: with pp12_yeast GLC7, P32598
pp12_yeast GLC7, P32598, sequence (P32598 whole entry): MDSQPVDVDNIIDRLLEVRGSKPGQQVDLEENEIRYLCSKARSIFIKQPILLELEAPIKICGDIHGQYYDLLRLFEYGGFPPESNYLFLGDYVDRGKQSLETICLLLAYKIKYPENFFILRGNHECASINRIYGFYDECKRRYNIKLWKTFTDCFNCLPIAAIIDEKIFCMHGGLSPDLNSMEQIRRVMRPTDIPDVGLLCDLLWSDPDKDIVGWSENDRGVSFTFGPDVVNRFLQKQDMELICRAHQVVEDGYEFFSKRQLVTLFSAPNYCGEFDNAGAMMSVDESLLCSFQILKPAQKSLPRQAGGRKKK

effect of a mutation on the interaction	Variant
disrupting interaction strength	MTLSNCDSLDNLFQDPPEEEESSKFVEAVRTLMNRNDMGYPPAAANGTYCLKKIKSLNAKQWKINKKRMCMLPAVKKKNFDFHEQRSLILNLNLWKFIKFINCSSKNNYNKNNKHVRSSNNTVKNENVLPLQKHKKVDNDQRLENLFWRSWFKARKRRDIMGKPRERHMKANDNVEQCIITDEHFIQRLPSTRLNSTDEQRPCSKSELDPCIGNAASKRSFYDYNSVYVASDAIITTAAATAIISSNSGDYQRGHDVRDVPRNVLLQAGETDFSSVLRVDSDLKLSNISHHSPVKPSSTSSHSTFIFESETDTDTDTDAETENDIDAYIDTSIPNLLL [I169M;F171A]
